Measured values from the nanobody polyreactivity screen of Harvey et al. (2022).

Assay: yeast display, Sf9 membrane polyspecificity reagent, FACS + sequencing; frameworks hold sequencing errors
Summary of the method: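 A nanobody's polyreactivity label depends on the gate it was sorted from. Yeast display cells were stained with 10% biotinylated, detergent-solubilized Sf9 membrane reagent for 1 hour at 4 °C, enriched on streptavidin microbeads and sorted by FACS. The low and high (top ~1%) gates were set on anti-HA fluorescence for expression and streptavidin fluorescence for reagent binding.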

| Sequence | polyreactivity (PSR sort gate) |
| --- | --- |
| QVQLVESGGGLVQAGGSLRLSCAASGYTFYWNAMGWYRQAPGKEREFVASFSGTSTYYADSVKGRFTISRDNAKNTVYLQMNSLKREDTAVYYCNARLTLGPRKYEYWGPGTQVTVSS | low polyreactivity |
| QVQLVESGGGLVQAGGSLRLSCAASGYTFYYAMGWYRQAPGKERELVAAISAGGGRTYYADSVKGRFTISRDNAKNTVYLQMNSLKPEDTAVYYCNRVYRLTAYGYDYWGQGTQVTVSS | high polyreactivity |
| QVQLVESGGGLVQAGGSLRLSCAASGYTFYYNAMGWYRQATGKERELVAAISWSTSGTYYADSVKGRFTISRDNAKNTVYLQMYSLKPEYTAVYYCAAPSSGTITYDYWGQGTQVTVSS | low polyreactivity |
| QVQLVESGGGLVQAGGSLRLSCAASGYTIIVNAMGWYRQAPGKERELVAAISWSSVSTYYADSVKGRFTISRDNAKNTVYLQMNSLKPEDTAVYYCAAEGYDYSQWFDYWGQGTQVTVSS | high polyreactivity |
| QVQLVESGGGLVQAGGSLRLSCAASGYTIRGYVMGWYRQAPGKERELVAAISASGGRTYYADSVKGRFTISRDYATNTVYLLMNSLKPEDTAVYYCAADSSRTPLEFDYWGQGTQVTVSS | high polyreactivity |
| QVQLVESGGGLVQAGGSLRLSCAASGYTIVSYAMGWERQAPGKERELVASIRWRGGRTYYADSVKGRFTISRDNAKNTVYLQMNSLKPEDTAVYYCAASTYYSPYVAHYGYWGQGTQVTVSS | high polyreactivity |
| QVQLVESGGGLVQAGGSLRLSCAASGYTLDNYAMGWYRQAPGKERELVAGITFSGGSTFYADSVKGRFTISRDNAKNTVYLQMNSLKPEDTAVYYCAADAEFQADHKYGYWGQGSQVTVSS | low polyreactivity |
| QVQLVESGGGLVQAGGSLRLSCAASGYTLSVNAMGWYRQAPGKERELVATIDFGGGSTYYADSVKGRFTISRDNAKNTVYLQMNSLKPEDTAVYYCNTEWTSLSKSSLGGRYDHWGQGTQVTVSS | low polyreactivity |
| QVQLVESGGGLVQAGGSLRLSCAASGYTSRYYAMGWYRQAPGKERELVAAITSGGSTNYADSVKGRFTISRDNAKNTVYLQMNSLKPEDTAVYYCAKGQYPWSYVLQTYIYDYWGQGTQVTVSS | low polyreactivity |
| QVQLVESGGGLVQAGGSLRLSCAASGYVMGWYRQAPGKEREMVAAITRGTSTYYADSVKGRFTISRDNAKNTVYLQLNSLKPEDTAVYFCADRHNTGSSRHYGYWGQGTQVTVSS | low polyreactivity |
| QVQLVESGGGLVQAGGSLRLSCAASGYVYVMGWYRQAPGKERELVAAISKNGGSTYYADSVKGRFTISRYNAKNTVYLQMNSLKPEDTAVYYCAAVSYHKTEYDYWGQGTQVTVSS | high polyreactivity |
| QVQLVESGGGLVQAGGSLRLSCAASGYYAMGWYRQAPGKERELVPAITWSGGTTYYADSVKGRFTISRDNAKNTVYLQMNSLKPEDTAVYYCNADFVRYTRHKKYYYWGQGTQVTVSS | low polyreactivity |
| QVQLVESGGGLVQAGGSLRLSCAASRFTFSYYAMVWYRKAHVKERELVAAISWRGGTPYADSVKGRFTISRDNAKKTVYLQMNSLKPEDTAVYYCNTAYQVYWRGNYWGQGTQVTVSS | high polyreactivity |
| QVQLVESGGGLVQAGGSLRLSCAASRIIFSYNPMGWYRQAPGKERELVAASSYGGRTYYAVSVKGRFTISRDNAKNTVDLQMKSLKPEDTAVYYCATRSPHRLYGDYYDYWGLGTQVTVSS | high polyreactivity |
| QVQLVESGGGLVQAGGSLRLSCAASRIIFYAYAMRWYRQAPGNERELVAAMSWSGGSTYYADSVKGRYTISRDNAKNTFYLQMNSLKPEDTAVYYCAAYFNIYGLEYDYWGQGTQVTVSS | high polyreactivity |
| QVQLVESGGGLVQAGGSLRLSCAASRITFIYYAMGSYRQAPGKERELVAAINRSGGSTYYADSVKGRFTISRDIAKNTVYLQMNSLKPEDTAVYYCNADRSYWYIHSEYEYWGQGTQVTVSS | high polyreactivity |
| QVQLVESGGGLVQAGGSLRLSCAASRNNYPYYAMGWSRQEPGKERELVAAISGSGERTYYADSVKGRFTISRDNAKNTVFLQMNSLKPEDTAVYYCAAYRRYYGWYEYWGQGTLVTVSS | high polyreactivity |
| QVQLVESGGGLVQAGGSLRLSCAASRRNFGRYAMGWYRQAPGKETELVARISSGGSTHYADSVKGRFTISRDNAMNSVFLQMNSLKPEDTAVYYCAAGWGYWRSYGSWGQGTEVTVSS | high polyreactivity |
| QVQLVESGGGLVQAGGSLRLSCAASRSIFLYYAMGWYRQAPGKERELVAAISYSGSGTYADSVKGRFTISRDNAKNTVYLQMNSLKPEDTAVSYCNVDYGSNSYDYWGQGTQVTVSS | low polyreactivity |
| QVQLVESGGGLVQAGGSLRLSCAASRSIFLYYAMGWYRQAPGKERELVAAISYSGSGTYADSVKGRFTISRDNAKNTVYLQMNSLKPEDTAVYYCNVDYGSYSYDYWGQGTQVTVSS | low polyreactivity |
| QVQLVESGGGLVQAGGSLRLSCAASRSIFSAYAMGWYRQAPGKERELVAAISTSGYTNYADSVKGRFTISRDNAKNTVYLQMKSLTPEDTAVYYCAADRVYGDGTAGYGYEFDYWGQVTQVTVSS | low polyreactivity |
| QVQLVESGGGLVQAGGSLRLSCAASRSTFFRYAMGWYRQAPGKERELVAAITWSGGSTYYADSVKGRFTISRDNAKNTVYLQMNSLKPEDTAVYYCAAPWRLFSLYDYWGQGTQVTVSS | low polyreactivity |

| Sequence | polyreactivity (PSR sort gate) |
| --- | --- |
| QVQLVESGGGLVQAGGSLRLSCAASRSTFGFYAMGWYRQAPGTERELVAAISRRGGTTYYADSVKGRFTISRDIAKNTFYLQMNSLKPEDTAVYYCAARIHYYAGYDYWGQGTQVTVSS | high polyreactivity |
| QVQLVESGGGLVQAGGSLRLSCAASRSTFYAYALGCYRQAPGKERELVAAIDSGGSTYYADSVKGRFTISRDNAKNTVYLQMNSLKPEDTAVYYCAVRHRYTRAYWGRDYWGQGTQVTVSS | low polyreactivity |
| QVQLVESGGGLVQAGGSLRLSCAASRSTFYIYDMGWYRQAPGKESELVARISGSGVSTYYADSVKGRFTISRDNAKNTVYLQMNSLKPEDTAVYYSAADGISHWLYRYDYWGQGTQVTVSS | low polyreactivity |
| QVQLVESGGGLVQAGGSLRLSCAASRYIFDPNAMGWYRQAPGKERELVAAISGSGTSTYYADSVKGRFTISRDNAKNTVYLQMNSLKPEDTAVYYCAAAHDAGPVRYYYWGQGTQVSVSS | low polyreactivity |
| QVQLVESGGGLVQAGGSLRLSCAASVFIFGYNAMGWYRQAPGKERELVAAISSSGGSTYYADSVKGRFTISRDNAKNTVYLQMNSLKPEDTAVYYCAARPVALRKYDYWGQGTQVTVSS | low polyreactivity |
| QVQLVESGGGLVQAGGSLRLSCAASVFILRYYAMGWYRQAPGKERELVAAISYTAGSTYYADSVKGRFTISRDNAKNTVYLQMNSLKPKDTAVYYCAASYTPWRYVPRDYWGQGTQVTVSS | high polyreactivity |
| QVQLVESGGGLVQAGGSLRLSCAASVFIYVKYAMGWYRQAPGKERELVAAITWSTGSTYYADSVKGRFTISRDNAKNTVYLQMNSMKPEDTAVYYCNVDSAWGRRYYSSYPFYYWGQGTQVTVSS | low polyreactivity |
| QVQLVESGGGLVQAGGSLRLSCAASVIIFNRYAMGRYRQAPGKERELVAAISGTGASTYYADSVKGRFTISRDNAKNTVYLQMNSLKPEDTAVYYCNARKRYKSGYWGQGTQVTVSS | high polyreactivity |
| QVQLVESGGGLVQAGGSLRLSCAASVIIFRLYGMGWYRQAPGKEREFVATITWRGGRTNYADSVKGRFTISRDNAKNTVYLQMNSLKPQDTAVYYCAKVVRYARSNEYDSWGQGTQVTVSS | low polyreactivity |
| QVQLVESGGGLVQAGGSLRLSCAASVITFGYYAMGWYRQAPGKERELVAAISRRGGNTYYADSVKGRFTISRDIAKNTVYLQMNSLKPEDTAVSYCATRALYWRYGYDYWGQGTQVTVSS | high polyreactivity |
| QVQLVESGGGLVQAGGSLRLSCAASVITFYFNAMGWYRQAPGKERELVAVITSGGSTNYADSVKGRFTISRDNAKNTVNLQMNSLKPEDTAVYYCATDKSYSSWSAQYDYWGQGTQVTVSS | low polyreactivity |
| QVQLVESGGGLVQAGGSLRLSCAASVLTFSYYALGGSRPAHGTERELVAAITSSGGRTTYADSVKGRFTISRDNAKNTVYLQMNSLKPEDTAVYYCNVVRCTLKYGYWGQGTQVTVSS | high polyreactivity |
| QVQLVESGGGLVQAGGSLRLSCAASVRIFTRYAMGWYRPAPGKERELVAGISYRGGGTYYADSVKGRFTISRDNAKNTVYLQMNSLKPEDTAVYYCATRRYPYSLLYKYWGQGTQVTVSS | high polyreactivity |
| QVQLVESGGGLVQAGGSLRLSCAASVRIFWYNAMGWYRQAPGKERELVATISSSGSTNYADSVKGRFTISRDNAKNTVYLQMNSLKPEDTAVYYGAPGKTGFRYGGGDSTQEYWGQGTQVTVSS | low polyreactivity |
| QVQLVESGGGLVQAGGSLRLSCAASVRIIDINAMGWSRQAPRKEREFVAGITSVGSTNYADSEKGRFTISRDNAKNTDYLDMNSLKPEDTAVYYCAADTSVHSEVDYWGQGTQVTVSS | low polyreactivity |
| QVQLVESGGGLVQAGGSLRLSCAASVRTFNLHAMGCYTQAPGKERELFAAITRSGDSTYYADSVKGSFTISRDKAKKTVYLQMKSLKPEDTAVYYCAKDNVTTPVVKVTFIPLDYWGQGTQVTVSS | low polyreactivity |
| QVQLVESGGGLVQAGGSLRLSCAASVRTFYIYAMGWYRQAPGKERELDAAITWSGGTTYYADSVKGRFTISRDIAINTVYLQMNSLKPEDTAVYYCAADRYGFYLESYYCGQGTQVTVSS | low polyreactivity |
| QVQLVESGGGLVQAGGSLRLSCAASVRTFYRNAMGWYIQAPGKERELVAAITSGGSTYYADSVKGRFTISRDNAKNTVYLQMNSLKPEDTAVYYCAALRHALRYDYWGQGTQVTVSS | low polyreactivity |
| QVQLVESGGGLVQAGGSLRLSCAASVSIFIYYAMGWYRQAQGKERELVAAISYSDGDTYYADSVKGRFTISRDNAKNTVYLQMNSLKPEDTAVYYCAAEVPQYYDVGWEDYCGQGTQVTVSS | high polyreactivity |
| QVQLVESGGGLVQAGGSLRLSCAASVSIFQKNARGWYRQAPGKERELVAVITRGGTSTYYADSVKGRFTISRDNAKNTVYLQMNSLKPEDTAVYDCAADSGFDTAPYDFWGQGTQVTVSS | low polyreactivity |
| QVQLVESGGGLVQAGGSLRLSCAASVSTFDGYAMGWYRQAPGKERELVAAISSNGGSTYYADSVKGRFTISRDNAKNTVYLQMNSLKPEDTAVYYCNTYRSTVYSWTHLLYDYWGQGTQVTVSS | low polyreactivity |
